Target: EPAS1 (HIF-2alpha) (Homo sapiens) (UniProt Q99814)
Test: cell_activity
Details: luciferase reporter, 6 ug plasmid, BAEC; direct binding not shown

Sequence of EPAS1 (HIF-2alpha) (Homo sapiens) (Q99814 whole entry): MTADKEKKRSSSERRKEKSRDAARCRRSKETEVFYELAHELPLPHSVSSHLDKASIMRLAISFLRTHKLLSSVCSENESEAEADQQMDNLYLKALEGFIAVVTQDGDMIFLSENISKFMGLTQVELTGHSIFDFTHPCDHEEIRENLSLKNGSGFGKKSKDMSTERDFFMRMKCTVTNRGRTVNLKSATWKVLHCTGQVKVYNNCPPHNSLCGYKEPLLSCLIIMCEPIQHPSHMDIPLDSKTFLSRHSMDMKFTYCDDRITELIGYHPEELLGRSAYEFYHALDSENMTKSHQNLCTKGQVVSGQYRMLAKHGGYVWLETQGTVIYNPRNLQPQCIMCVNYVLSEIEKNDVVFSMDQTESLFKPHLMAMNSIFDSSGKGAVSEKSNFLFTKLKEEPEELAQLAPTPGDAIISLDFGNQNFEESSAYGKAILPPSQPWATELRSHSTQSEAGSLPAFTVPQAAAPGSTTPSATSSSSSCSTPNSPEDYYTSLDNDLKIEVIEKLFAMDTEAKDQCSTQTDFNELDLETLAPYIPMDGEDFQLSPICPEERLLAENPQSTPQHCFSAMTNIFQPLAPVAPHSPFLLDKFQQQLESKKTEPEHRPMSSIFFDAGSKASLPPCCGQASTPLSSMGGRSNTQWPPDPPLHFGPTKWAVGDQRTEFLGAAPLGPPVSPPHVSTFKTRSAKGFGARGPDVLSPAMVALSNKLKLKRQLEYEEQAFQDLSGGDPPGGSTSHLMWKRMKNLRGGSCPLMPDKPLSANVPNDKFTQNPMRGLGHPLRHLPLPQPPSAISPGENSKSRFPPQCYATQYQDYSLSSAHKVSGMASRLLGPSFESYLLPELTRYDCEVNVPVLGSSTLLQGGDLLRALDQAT

In the case of KDR/flk-1 promoter -4 kb to +296, the activity is reported as 12.9 fold.

Source: patent US6395548
